Data from patent publication US20160131655A1.

Target: BCMA (B cell maturation antigen) protein on the cell surface of human multiple myeloma cells (human) (UniProt Q02223)
Assay: FACS on OPM-2 cells, Alexa488-labeled antibody

Chain of UniProt Q02223 (Q02223 whole entry N81S): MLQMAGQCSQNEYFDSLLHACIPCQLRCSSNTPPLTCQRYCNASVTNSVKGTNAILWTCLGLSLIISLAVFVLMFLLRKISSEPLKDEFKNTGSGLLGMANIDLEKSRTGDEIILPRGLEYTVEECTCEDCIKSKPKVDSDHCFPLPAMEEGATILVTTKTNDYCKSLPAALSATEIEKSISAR

Mean Fluorescence Signal | Substance
371 | anti-BCMA antibody MAB193 (clone 335004, rat IgG2a, R&D Systems #MAB193)
609 | anti-BCMA antibody Vicky-1 (rat IgG1, GeneTex #GTX17323)
